The text below walks through data of article PMC11136987 (2024).

In assay [1] the target is recombinant full-length HAX-1 (UniProt O00165 1-279). Briefly: BLI. For orientation: BLI is a label-free optical method that tracks binding on a fibre tip over time.
Assay [2] has as its target recombinant full-length ASC (UniProt Q9ULZ3 1-195). Nature of the assay: BLI.

Sequence of recombinant full-length HAX-1 (O00165 whole entry): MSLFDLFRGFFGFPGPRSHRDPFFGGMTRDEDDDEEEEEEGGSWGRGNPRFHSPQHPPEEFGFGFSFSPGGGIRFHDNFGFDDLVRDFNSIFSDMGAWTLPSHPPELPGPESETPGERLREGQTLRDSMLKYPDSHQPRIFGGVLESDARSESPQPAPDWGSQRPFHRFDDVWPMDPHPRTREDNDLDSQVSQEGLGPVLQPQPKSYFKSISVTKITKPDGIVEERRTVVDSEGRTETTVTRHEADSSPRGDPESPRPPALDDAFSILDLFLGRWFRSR
Sequence of recombinant full-length ASC (Q9ULZ3 whole entry): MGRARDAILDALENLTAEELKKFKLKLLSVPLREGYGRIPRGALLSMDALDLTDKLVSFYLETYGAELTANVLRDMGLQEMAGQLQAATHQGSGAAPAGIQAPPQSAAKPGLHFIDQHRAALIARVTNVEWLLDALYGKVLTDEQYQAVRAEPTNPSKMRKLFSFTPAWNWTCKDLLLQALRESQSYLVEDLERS

B1: recombinant partial NLRP3 1-536aa (domain or fragment)
chain: MKMASTRCKLARYLEDLEDVDLKKFKMHLEDYPPQKGCIPLPRGQTEKADHVDLATLMIDFNGEEKAWAMAVWIFAAINRRDLYEKAKRDEPKWGSDNARVSNPTVICQEDSIEEEWMGLLEYLSRISICKMKKDYRKKYRKYVRSRFQCIEDRNARLGESVSLNKRYTRLRLIKEHRSQQEREQELLAIGKTKTCESPVSPIKMELLFDPDDEHSEPVHTVVFQGAAGIGKTILARKMMLDWASGTLYQDRFDYLFYIHCREVSLVTQRSLGDLIMSCCPDPNPPIHKIVRKPSRILFLMDGFDELQGAFDEHIGPLCTDWQKAERGDILLSSLIRKKLLPEASLLITTRPVALEKLQHLLDHPRHVEILGFSEAKRKEYFFKYFSDEAQARAAFSLIQENEVLFTMCFIPLVCWIVCTGLKQQMESGKSLAQTSKTTTAVYVFFLSSLLQPRGGSQEHGLCAHLWGLCSLAADGIWNQKILFEESDLRNHGLQKADVSAFLRMNLFQKEVDCEKFYSFIHMTFQEFFAAMYYLL
modifications: biotinylated (sites not given)
As usually defined, the Kd is the constant that tells how readily two partners part at equilibrium. Turning to B1, the results for the Kd in assay [1] and in assay [2] were 3.38 nM and 7.33 nM, respectively.
